{
  "source": "patent US20030232009A1",
  "about": "(Amgen, published 2003)",
  "binders": {"B1": {"name": "AB-CD45RB-XG2-475 (antibody, human IgG2, V domains shown)", "VH": "AVQLLESGGGLIQPGGSLRLSCAASGFTFSSYAMSWVRQAPGKGLEWVSAISGSGGSTFYADSVRGRFTISRDNSKNTLYLQMNSLRVEDTAVYYCAKEVMGPIFFDYWGQGTLVTVSS", "VL": "EIVLTQSPGTLSLSPGERATLSCRASQSIISSALAWYQQKPGQAPRLLIYGASSRATGIPDRFSGSGSGTDFTLTISRLEPEDFAVYHCQQYGSTPLTFGGGTKVEIK", "notes": "recombinant human IgG2 kappa; also called sc475"}, "B2": {"name": "AB-CD45RB-XG2-569 (antibody, human IgG2, V domains shown)", "VH": "QVQLQESGPGLVKPSETLSLTCTVSGGSISGYYWSWIRQPAGKGLEWIGRIHTTGKTAYNSSLKSRVIMSVDTSKNLFSLKLTSVTAADTAVYYCARDYDFLTGYFDYWGQGTLVTVSS", "VL": "not shown", "notes": "recombinant human IgG2 kappa; also called sc569"}, "B3": {"name": "AB-CD45RB-XG2-275 (antibody, human IgG2, V domains shown)", "VH": "QVQLVESGGGVVQPGRSLRLSCAASGFTFSKFGMHWVRQAPDKGLEWVAVIWYDGTYKYYADSVKGRFTISRDNSKNTLYLQMNSLRAEDTAVYYCARGGGSFDYWGQGTLVTVSS", "VL": "DIVMTQTPLSLSVTPGQPASISCKSSQSLLHSDGKTFLYWYLQKPGQPPQLLIYEVSNRFSGVPDRFSGSGSGIDFTLKISRVEAEDVGVYYCMQSIQFPITFGQGTRLEIK", "notes": "recombinant human IgG2 kappa; also called sc275"}, "B4": {"name": "AB-CD45RB-XG2-324 (antibody, human IgG2, V domains shown)", "VH": "QVQLVESGGGVVQPGRSLRLSCAASGFTFSKFGMHWVRQAPDKGLEWVAVIWYDGSYKYYADSVKGRFTISRDNSKNTLYLQMNSLRAEDTAAYYCARGGGSFDYWGQGTLVTVSS", "VL": "DIVMTQTPLSLSVTPGQPASISCKSSQSLLHSDGKTFLYWYLQKPGQPPQLLIYEVSNRFSGVPDRFSGSGSGIDFTLKISRVEAEDVGVYYCMQSIQFPITFGQGTRLEIK", "notes": "recombinant human IgG2 kappa; also called sc324; 39E11 (sc324)"}, "B5": {"name": "AB-CD45RB-XG2-413 (antibody, human IgG2, V domains shown)", "VH": "QVQLVESGGGVVQPGRSLRLSCAASGFTFSSYGMHWVRQAPDKGLEWVAVIWYDGSYKYYADSVKGRFTISRDNSKNTLYLQMNSLRAEDTAVYYCARGGGSFDYWGQGTLVTVSS", "VL": "DIVMTQTPLSLSVTPGQPASISCKSSQSLLHRDGKTFLYWYLQKPGQPPQLLIYEVSNRFSGVPDRFSGSGSGTDFTLKISRVEAEDVGVYYCMQSIQFPITFGQGTRLEIK", "notes": "recombinant human IgG2 kappa; also called sc413"}, "B6": {"name": "AB-CD45RB-XG2-416 (antibody, human IgG2, V domains shown)", "VH": "QVQLVESGGGVVQPGRSLRLSCAASGFTFSRYGMHWVRQAPGKGLEWVAVIWYDGSNKYYADSVKGRFTISRDNSKNTLYLQVNSLRAEDTAVYYCARGGGSFDYWGQGTLVTVSS", "VL": "DIVMTQTPLSLSVTPGQPASISCKSSQSLLHSDGKTFLYWYLQKPGQPPQLLIYEVSNRFSGVPDRFGGSGSGTDFTLKISRVEAEDVGVYYCMQSIQFPITFGQGTRLEIE", "notes": "recombinant human IgG2 kappa; also called sc416"}},
  "data": [
    {"molecular_target": "T1, Human 20.2 peptide (human)", "T1 construct": "synthetic peptide from the RB exon", "T1 peptide": "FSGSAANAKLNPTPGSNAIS", "assay": "recombinant antibody on peptide", "values": [
      {"binder": "B1", "binding result": "no binding"},
      {"binder": "B2", "binding result": "no binding"},
      {"binder": "B3", "binding result": "no binding"},
      {"binder": "B4", "binding result": "no binding"},
      {"binder": "B5", "binding result": "no binding"},
      {"binder": "B6", "binding result": "no binding"}
    ]}
  ]
}
